# T1: ICAM-R (Homo sapiens, UniProt P32942)
# T1 construct: express the full length ICAM-1 and ICAM-R proteins, respectively; expressed in transfected cells; host or cells: COS cells, DEAE-dextran, plasmid pcDNA1AmpICAM-R
# T1 sequence (P32942 30-547): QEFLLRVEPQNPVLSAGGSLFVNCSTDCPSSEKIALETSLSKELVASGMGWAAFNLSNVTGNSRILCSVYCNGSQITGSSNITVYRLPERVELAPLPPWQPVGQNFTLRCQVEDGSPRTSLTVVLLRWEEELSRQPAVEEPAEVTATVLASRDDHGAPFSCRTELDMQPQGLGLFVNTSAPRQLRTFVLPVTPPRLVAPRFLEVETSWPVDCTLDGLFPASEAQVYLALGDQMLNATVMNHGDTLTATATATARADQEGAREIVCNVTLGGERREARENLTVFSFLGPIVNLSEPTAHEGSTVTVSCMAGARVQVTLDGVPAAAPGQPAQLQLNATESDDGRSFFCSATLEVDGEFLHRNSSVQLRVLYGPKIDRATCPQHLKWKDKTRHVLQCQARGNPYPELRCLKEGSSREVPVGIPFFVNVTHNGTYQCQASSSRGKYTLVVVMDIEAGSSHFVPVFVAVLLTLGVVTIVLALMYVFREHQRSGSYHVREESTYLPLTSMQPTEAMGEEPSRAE
# B1: ICR-1.1: anti-ICAM-R monoclonal antibody, IgG2a, domain 1, ATCC HB 11053 (antibody, V domains shown)
# VH: QVQLQQSGAELAKPGASVKMSCKASGYTFTVYWMHWVKQRPGQGLEWIGYINPNTDYTEYNQRFQDKATLTADKSSSTAYMQLSSLTSEDSAVYYCARWGGNSYGLDYWGQGTSVTVSS
# VL: QIVLTQSPALMSASPGEKVTMTCSASSSVSYIYWYQQKPRSSPKPWIYLTSNLASGVPARFSGSGSGASYSLTISIMEAEDAATYYCQQWKSIPLTFGAGTKLELK
# Columns and labels:
# ICAM-R [1] = assay: Epitope mapping by domain substitution/deletion (summary); assay type: binding, human
# Procedure: Fusion 81 was screened by ELISA on COS cells transiently transfected with either a domain 1 deleted ICAM-R construct [Example 15.C.1] or with an ICAM-2 construct. The transfected cells were paraformaldehyde fixed on 96-well plates, and the remainder of the assay was performed as previously described, except no Tween 20 was used. The wells that were positive for domain 1 deleted ICAM-R but negative for ICAM-2, were tested on Cos cells transiently transfected with domain 1 deleted ICAM-R or domain 3 deleted ICAM-R by ELISA.
# For the anti-ICAM-R monoclonal antibody binding assay, COS cells transfected with constructs encoding the ICAM-R chimeric proteins or control constructs were removed from the plates by EDTA treatment and aliquoted at 2.5×10^5 cells per well in a 96-well round bottom plate. Cells were washed 3 times with ice cold washing buffer (PBS containing 1% BSA and 0.05% sodium azide). […] The samples were analyzed on a Becton-Dickinson FACScan instrument. […]
# Table 11 below is a summary of certain characteristics of ICAM-R specific monoclonal antibodies of the invention which have been specifically described in the foregoing examples. In Table 11, the abbreviation “NC” stands for “not conclusive” and the abbreviation “ND” stands for “not determined.” The antibodies marked with an asterisk in Table 11 enhanced activation at low concentrations.
# Resting PBL = assay: CD69 and CD25 upregulation after prepulse; assay type: cell-based, human; settings: 24 hours
# Procedure: Resting PBL isolated as described in Section I above were prepulsed on ICR-1.1 or negative control antibodies, washed and incubated on immobilizedanti-CD3 for 24 hours. The cells were then collected, labeled with monoclonal antibodies to the lymphocyte activation antigens CD69, CD25 and CD80 and examined by flow cytometry.
# ICAM-R [2] = molecular target: T1, ICAM-R; assay: FACS binding to COS cell transfectants; settings: antibody 5.0 ug/ml
# Procedure: (§1) For the anti-ICAM-R monoclonal antibody binding assay, COS cells transfected with constructs encoding the ICAM-R chimeric proteins or control constructs were removed from the plates by EDTA treatment and aliquoted at 2.5×10^5 cells per well in a 96-well round bottom plate. Cells were washed 3 times with ice cold washing buffer (PBS containing 1% BSA and 0.05% sodium azide). Anti-ICAM-R monoclonal antibody was applied at 5.0 ug/ml in 50 ul final volume and incubated on ice for 30 minutes. Cells were then washed three times with cold washing buffer and incubated with the FITC labeled secondary antibody (sheep anti-mouse IgG F(ab′)2) at a 1:100 dilution on ice for 30 minutes in dark in 50 ul final volume. After the incubation, cells were washed again for three times in the ice cold washing buffer and resuspended in 200 ul of 1% paraformaldehyde. The samples were analyzed on a Becton-Dickinson FACScan instrument. Results of the assay are given below in Table 5 as percent positive COS cell transfectants, wherein MOPC 21 (IgG1) and UPC 10 (IgG2a) are isotype matched controls, 18E3D is an ICAM-1 specific monoclonal antibody and ICR-1.1 to ICR-9.2 are ICAM-R specific monoclonal antibodies. The reactivities of monoclonal antibodies ICR-1.1 through ICR-9.2 were assayed in a different experiment than monoclonal antibodies ICR-12.1 through ICR-17.1.
# ICAM-1 = molecular target: T2, ICAM-1 (Homo sapiens, UniProt P05362); assay: FACS binding to COS cell transfectants; settings: antibody 5.0 ug/ml
# T2 construct: express the full length ICAM-1 and ICAM-R proteins, respectively; expressed in transfected cells; host or cells: COS cells, DEAE-dextran, plasmid pcDNA1AmpICAM-1
# Procedure: as §1
# PBMC = PBMC activation markers on immobilized antibody; assay type: cell-based, human; settings: immobilized antibody 10 μg/well; no other stimuli
# Procedure: Anti-ICAM-R monoclonal antibodies ICR-1.1 and ICR-4.2 were each tested for the ability to induce PMBC activation in the absence of other inducing stimuli. Monoclonal antibodies ICR-1.1 or ICR-4.2 (or control monoclonal antibodies) were added (10 μg/well in PBS) to individual wells of a 96-well flat bottom tissue culture plate and incubated for 3 hours at 37° C. in a 5% CO2 incubator. The plates were washed 3 times with sterile PBS to remove unbound antibody and freshly isolated PBMC were immediately added to a final concentration of 2×10^5 cells/well in a volume of 200 μl media. The plates were then incubated for either 1 or 3 days at which time the cells cultured in the presence of different antibodies were removed, washed as described above in PBS containing 0.01% sodium azide and 1% BSA (FACS buffer) and stained with either FITC (Becton Dickinson)-conjugated negative control antibodies or a panel of FITC-conjugated anti-CD69, anti-transferrin receptor and anti-IL-2 receptor antibodies. Results were obtained by FACScan analysis. […] However, while increased expression of these lymphocyte activation markers was observed after 1 and 3 days this increased expression was unaccompanied by increased cell size.
# T2 sequence (P05362 28-532): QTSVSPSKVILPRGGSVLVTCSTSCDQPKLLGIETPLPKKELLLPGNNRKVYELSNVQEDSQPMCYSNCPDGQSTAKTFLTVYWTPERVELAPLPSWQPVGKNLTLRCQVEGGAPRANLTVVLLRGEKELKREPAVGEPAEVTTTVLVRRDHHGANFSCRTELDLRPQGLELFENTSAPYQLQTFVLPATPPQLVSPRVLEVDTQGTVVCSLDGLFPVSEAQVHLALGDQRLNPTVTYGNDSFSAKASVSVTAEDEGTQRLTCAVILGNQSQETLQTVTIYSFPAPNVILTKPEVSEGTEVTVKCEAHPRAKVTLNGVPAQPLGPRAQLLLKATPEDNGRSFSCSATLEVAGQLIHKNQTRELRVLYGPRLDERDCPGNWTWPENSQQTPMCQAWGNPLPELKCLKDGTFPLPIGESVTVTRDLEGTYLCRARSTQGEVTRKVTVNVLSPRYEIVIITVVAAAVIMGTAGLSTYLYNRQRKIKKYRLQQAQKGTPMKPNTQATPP
molecule,measurement,setting,value
B1,Reactive Domain,ICAM-R [1],1
same,upregulation of CD69 and CD25 in response to immobilized anti-CD3 after prepulse,Resting PBL,do not exhibit decreased ability to upregulate the activation antigens CD69 and CD25
same,"percent positive COS cell transfectants, ICAM-R",ICAM-R [2],54.33%
same,"percent positive COS cell transfectants, ICAM-1",ICAM-1,2.43%
same,PBMC activation marker expression after 1 day,PBMC,Expression of CD69 and the transferrin receptor but not the IL-2 receptor increased
same,PBMC activation marker expression after 3 days,PBMC,increased levels of cell surface expression of both the transferrin receptor and IL-2 receptor but not CD69

# — patent publication US20040248211A1, “ICAM-related protein” (priority 1992, published 2004)
